gD epitope tag = herpes gD epitope tag left after the gD signal sequence; Fc (human IgG1) = Fc portion of human IgG1
T1: ErbB4.Fc (UniProt Q15303 26-651, limits assumed)
T1 construct: also called soluble form of ErbB4 receptor; immobilized soluble ErbB4 receptor; not shown: Fc part, not described; the protein was captured on the plate by goat anti-human antibody
T1 sequence (looked up): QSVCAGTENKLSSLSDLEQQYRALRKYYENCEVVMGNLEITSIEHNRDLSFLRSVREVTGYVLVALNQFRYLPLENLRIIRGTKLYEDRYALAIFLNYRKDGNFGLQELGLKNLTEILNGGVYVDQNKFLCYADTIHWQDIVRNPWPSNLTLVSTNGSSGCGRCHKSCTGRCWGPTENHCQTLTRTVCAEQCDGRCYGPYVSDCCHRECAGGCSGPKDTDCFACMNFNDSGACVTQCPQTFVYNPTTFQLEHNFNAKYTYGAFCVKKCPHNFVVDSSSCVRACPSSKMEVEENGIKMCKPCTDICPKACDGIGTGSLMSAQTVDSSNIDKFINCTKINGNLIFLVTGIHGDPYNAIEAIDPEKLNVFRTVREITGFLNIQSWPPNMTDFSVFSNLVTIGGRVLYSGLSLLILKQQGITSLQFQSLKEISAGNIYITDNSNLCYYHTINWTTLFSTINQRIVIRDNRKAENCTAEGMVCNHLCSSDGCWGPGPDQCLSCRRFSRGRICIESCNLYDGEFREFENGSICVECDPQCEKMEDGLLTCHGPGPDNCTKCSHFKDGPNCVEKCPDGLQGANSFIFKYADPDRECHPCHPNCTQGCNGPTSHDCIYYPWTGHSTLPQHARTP

B1: NRG3^EGF.Fc (Fc fusion)
chain: {gD epitope tag}-ERSEHFKPCRDKDLAYCLNDGECFVIETLTGSHKHCRCKEGYQGVRCDQFLPKTDSILSDP-{Fc (human IgG1)}
modifications: not fully specified
notes: Secreted from CHO cells, purified on protein A; MW 90 kDa; also called NRG3-EGF-Fc fusion protein; not shown: Fc portion of human IgG1

Assays:
ErbB4.Fc [1] = target: T1, ErbB4.Fc; assay: displacement of 125I-NRG3^EGF.Fc from immobilized ErbB4.Fc by NRG1^EGF
ErbB4.Fc [2] = target: T1, ErbB4.Fc; assay: displacement of 125I-NRG3^EGF.Fc from immobilized ErbB4.Fc by unlabeled NRG3^EGF.Fc
Procedure: The displacement binding assays were performed in Maxisorp C 96-wells (Nunc, Naperville, Ill.). Goat anti-human antibody (Boehringer Mannheim, Germany) was coated on the plate at a concentration of 0.2 µg/well in 100 µl of 50 mM sodium carbonate buffer (pH 9.6) at 4° C., overnight. The plate was blocked by 1% BSA in TBST buffer (25 mM Tris, pH 7.5, 150 mM NaCl, 0.02% Tween 20) for 30 min at room temperature (RT). A soluble form of ErbB4 receptor was added at 15 ng/well in 1% BSA/TBST and incubated for 1.5 hr at RT. To prevent radiolabeled protein from interacting with residual goat anti-human antibodies, 1 µM of a humanized monoclonal antibody (rhuMAB HER2; Carter, P. et al. (1992) *Proc. Natl. Acad. Sci. USA* 89:4285–9) was added to the plate for 20 min and was included in the subsequent binding reaction.
The unbound material was washed by TBST extensively, and the bound radioactivity was counted on a Beckman IsoData gamma-counter (Smith-Kline Beckman, Pa.). Data was analyzed using a nonlinear regression computer program.

[3] = target: T2, human ErbB2 receptor on cells (human, UniProt P04626 23-1255); assay: FACS on K562^erbB2 cells
T2 construct: whole, on cells; also called HER2; K562^erbB2 cells
Procedure: (§1) In FIGS. 6A–6D, parental K562 cells (FIG. 6A) or K562 cells expressing either ErbB2 receptor (K562^erbB2 cells; FIG. 6B), ErbB3 receptor (K562^erbB3 cells; FIG. 6C) or ErbB4 receptor (K562^erbB4 cells; FIG. 6D) were examined for the expression of corresponding receptors. Cells were incubated with anti-ErbB2 receptor, anti-ErbB3 receptor or anti-ErbB4 receptor antibodies as indicated before PE-conjugated secondary antibody was added. "LOG PE" represents relative fluorescent intensity and "Counts" represents cell numbers. In FIGS. 6E–6H, NRG3^EGF.Fc is shown by FACS analysis to bind to ErbB4 receptor expressing cells. Parental K562 cells (FIG. 6E), K562^erbB2 cells (FIG. 6F), K562^erbB3 cells (FIG. 6G) and K562^erbB4 cells (FIG. 6H) were incubated with or without NRG3^EGF.Fc (containing gD tag) for 1 hour, followed by anti-gD-tag primary antibody and PE-conjugated secondary antibody.
(§2) C. FACS Analysis. For each binding reaction, 5×10^5 stably transfected K562 cells were suspended in PBS/2% BSA at 4° C. for 30 min followed by incubation with 5 µg of isolated, purified NRG3^EGF.Fc (MW 90 kDa) in a volume of 0.25 ml on ice for 60 min. 1 µg of primary antibody (anti-gD or anti-ErbB receptor) and secondary PE-conjugated (CALTAG, Calif., goat anti-mouse, 1:100 dilution) antibodies were added sequentially with 30–60 min incubation time and extensive washes before each addition. […]

[4] = target: T3, human ErbB3 receptor on cells (human, UniProt P21860 20-1342); assay: FACS on K562^erbB3 cells
T3 construct: whole, on cells; also called HER3; K562^erbB3 cells
T3 sequence (P21860 20-1342): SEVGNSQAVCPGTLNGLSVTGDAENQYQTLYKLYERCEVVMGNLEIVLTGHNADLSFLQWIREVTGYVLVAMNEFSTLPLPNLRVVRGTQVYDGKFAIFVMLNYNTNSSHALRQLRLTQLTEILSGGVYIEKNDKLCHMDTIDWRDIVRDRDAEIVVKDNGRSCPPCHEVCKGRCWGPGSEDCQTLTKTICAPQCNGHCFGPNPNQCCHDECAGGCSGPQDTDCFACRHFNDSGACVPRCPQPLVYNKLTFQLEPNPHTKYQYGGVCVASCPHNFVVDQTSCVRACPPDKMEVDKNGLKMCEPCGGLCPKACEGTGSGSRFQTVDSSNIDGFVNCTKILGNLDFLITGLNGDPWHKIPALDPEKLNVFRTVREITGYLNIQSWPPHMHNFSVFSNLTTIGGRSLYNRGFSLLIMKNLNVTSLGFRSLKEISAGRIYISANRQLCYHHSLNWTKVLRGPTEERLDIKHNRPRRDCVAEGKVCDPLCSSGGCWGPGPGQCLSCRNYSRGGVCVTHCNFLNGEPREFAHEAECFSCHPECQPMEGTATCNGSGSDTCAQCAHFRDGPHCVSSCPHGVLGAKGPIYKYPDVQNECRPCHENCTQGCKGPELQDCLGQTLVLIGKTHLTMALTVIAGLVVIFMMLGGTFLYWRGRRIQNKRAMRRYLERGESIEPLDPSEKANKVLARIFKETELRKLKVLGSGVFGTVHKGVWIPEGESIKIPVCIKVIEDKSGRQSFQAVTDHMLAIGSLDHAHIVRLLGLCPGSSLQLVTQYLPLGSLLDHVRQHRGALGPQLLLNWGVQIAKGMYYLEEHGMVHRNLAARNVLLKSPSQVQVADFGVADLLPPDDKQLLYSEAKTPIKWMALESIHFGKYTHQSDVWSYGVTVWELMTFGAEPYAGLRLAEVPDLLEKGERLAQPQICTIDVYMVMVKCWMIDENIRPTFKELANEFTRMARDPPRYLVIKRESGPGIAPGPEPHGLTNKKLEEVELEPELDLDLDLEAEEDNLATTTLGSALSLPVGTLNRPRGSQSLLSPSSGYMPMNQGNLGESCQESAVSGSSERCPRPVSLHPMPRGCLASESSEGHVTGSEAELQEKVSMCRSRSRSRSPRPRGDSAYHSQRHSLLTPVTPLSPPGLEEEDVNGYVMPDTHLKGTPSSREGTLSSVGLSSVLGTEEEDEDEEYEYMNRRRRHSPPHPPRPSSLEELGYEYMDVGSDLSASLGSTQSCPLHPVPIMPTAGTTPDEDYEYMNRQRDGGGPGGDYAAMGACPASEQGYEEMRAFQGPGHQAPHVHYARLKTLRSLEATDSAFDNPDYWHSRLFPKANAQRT
Procedure: as §1, §2

Row | Molecule | Ki (ErbB4.Fc [1]) [nM] | Ki (ErbB4.Fc [2]) [nM] | binding result [3] | binding result [4]
1 | NRG1^EGF (from UniProt Q02297 177-244) (ligand) | 1 | – | – | –
2 | B1 | – | 9 | no binding (tested: 5 µg in a volume of 0.25 ml) | no binding (tested: 5 µg in a volume of 0.25 ml)

From US6994856 (Genentech, dated 2006)
